The text below walks through data of patent publication US20150274802A1.

Square brackets hold non-standard residues; d marks the D form. Primed or numbered codes have the meaning given here. Ends that are not written are not given here. PEG4″ = 4-unit polyethylene glycol spacer; PEG8″ = 8-unit polyethylene glycol spacer

The target in assay [1] is type A insulin receptor, P06213. The experiment in a line: cell-based or functional assay.
Assay [2] addresses type A insulin receptor (UniProt P06213). The assay can be described thus: cell-based or functional assay.
Assay [3] deals with type B insulin receptor, P06213. The assay can be described thus: cell-based or functional assay.
For assay [4], the target named is type A insulin receptor (UniProt P06213). The experiment in a line: competitive binding SPA, subtype A insulin receptor (FIG. 17D).

B1: #58: Lys^C8-PEG20K-Lys^C8 #3 dimer (ligand)
chain: Ac-GPEHLCGAELVDALYLVCGDRGFY[PEG8″]KGIVDECCFRSCDLRRLENYCN
modifications: not fully specified (some residues); numbers in words are those of the source; ends and bridges not checked; also: dimer: linker Lys epsilon-amines of two chains joined by bifunctional 20K PEG linker
B1 showed a Phosphorylation (EC50), % IR-A in assay [1] of 18.6%.

B2: #55: Lys^B1-PEG9-Lys^B1 #20* dimer, GE5K-B^1(H5,10Y16L17)25-C^1-A^1(H8N18,21) (ligand)
chain: GEEEEEKGPEHLCGAHLVDALYLVCGDRGFYGYGSSSRRAPQTGIVDECCHRSCDLRRLENYCN
The molecule B2 showed a Phosphorylation (EC50), % IR-A in the assay with type A insulin receptor [2] of 44%.

B3: #57: Gly^B2-PEG20K-Gly^B2 #11 dimer (ligand)
chain: GPEHLCGAHLVDALYLVCGDRGFYGYGSSSRRAPQTGIVDECCHRSCDLRRLENYCN
modifications: not fully specified (N-terminus); ends and bridges not checked; also: dimer: N-terminal amines of two chains joined by bifunctional 20K PEG linker
In assay [3], B3 yielded a % Insulin Activity (in vitro, assay not named) of 5.8%; a Phosphorylation (EC50), % IR-B of 5.8%; a potency against the 20K PEGylated monomer (#39) of 4 fold. In assay [1], this molecule displayed a % Insulin Activity (in vitro, assay not named) of 19.7%; a Phosphorylation (EC50), % IR-A of 19.7%; a potency against the 20K PEGylated monomer (#39) of 4 fold.

B4: #56: Gly^B2-PEG10K-Gly^B2 #11 dimer (ligand)
chain: GPEHLCGAHLVDALYLVCGDRGFYGYGSSSRRAPQTGIVDECCHRSCDLRRLENYCN
modifications: not fully specified (N-terminus); ends and bridges not checked; also: dimer: N-terminal amines of two chains joined by bifunctional 10K PEG linker
For B4, the Phosphorylation (EC50), % IR-B in assay [3] stood at 9.7%. In assay [1], this molecule had a Phosphorylation (EC50), % IR-A of 38.2%.

B5: #53: Lys^C8-Lys^C8 #3 dimer, B^1[H5Y16L17]25-PEG8KPEG4-A^1[N18,21] (ligand)
chain: Ac-GPEHLCGAELVDALYLVCGDRGFY[PEG8″]K(mercaptopropionyl)[PEG4″]GIVDECCFRSCDLRRLENYCN
modifications: ends and bridges not checked; also: dimer: linker Lys side chains joined by disulfide to second chain
In the assay with type A insulin receptor [4], B5 had a binding affinity, fold against native insulin of 1.5 fold.

B6: #59: Cys^B1-Lys^C8 #2(sc)-#3 dimer (ligand)
chain 1: CGPEHLCGAELVDALYLVCGDRGFYFNKKGIVDECCFRSCDLRRLENYCN
chain 2: GPEHLCGAELVDALYLVCGDRGFYKGIVDECCFRSCDLRRLENYCN
modifications: here or on the partner: N-terminus acetylated; linker Lys epsilon-amine mercaptopropionylated; Cys B1 side chain disulfide-linked to the mercaptopropionyl group on the linker Lys of the second chain
In assay [3], B6 yielded a maximal response of 10%. The molecule also gave an IC50, antagonism test in assay [1] of 2.08 nM.

B7: #60: Cys^B1-Lys^C8 #2(tc)-#3 dimer (ligand)
chain 1: CGPEHLCGAELVDALYLVCGDRGFYFNKK
chain 2: GIVDECCFRSCDLRRLENYCN
chain 3: GPEHLCGAELVDALYLVCGDRGFYKGIVDECCFRSCDLRRLENYCN
modifications: here or on the partner: N-terminus acetylated; linker Lys epsilon-amine mercaptopropionylated; Cys B1 side chain disulfide-linked to the mercaptopropionyl group on the linker Lys of the single-chain unit
B7 yielded a maximal response in assay [3] of 50%. In assay [1], this molecule came in with an IC50, antagonism test of 1.89 nM and a maximal receptor response of 50%.
